Holding throughout (format): biochemical, Crocus sativus
Substrate in the data set “HPLC of glucoside formed”: O=c1ccn([C@@H]2O[C@H](CO[P@@](=O)(O)O[P@@](=O)(O)O[C@H]3O[C@H](CO)[C@@H](O)[C@H](O)[C@H]3O)[C@@H](O)[C@H]2O)c(=O)[nH]1
In words: HPLC of glucoside formed. To be noted: constant kaempferol as acceptor (level not given).

Substrate in data set [1]: O=c1c(O)c(-c2ccc(O)c(O)c2)oc2cc(O)cc(O)c12
In words: HPLC of glucoside formed, Lineweaver-Burk. To be noted: 7-O-glucoside formation (preferred position), 2.5 mM UDP-glucose, 50 mM Tris-HCl pH 7.5, 14 mM 2-mercaptoethanol, 30°C. The text has this:
(§1) HPLC of glucoside formed, Lineweaver-Burk on CsGT45

Substrate in data set [2]: O=c1c(O)c(-c2ccc(O)cc2)oc2cc(O)cc(O)c12
Nature of the data set: HPLC of glucoside formed, Lineweaver-Burk. Conditions: 7-O-glucoside formation, 2.5 mM UDP-glucose, 50 mM Tris-HCl pH 7.5, 14 mM 2-mercaptoethanol, 30°C.
Description: as §1

B1: CsGT45 (Crocus sativus) (protein)
chain: MEQHQPNILVVTYPAQGHINPALHLAKHLAADTKGLLITFSTAISAHRKMFPESTEPDQEVEDGPITYIPFSDGYDDGFQRDKHDGKQFRSRFKTVGSNTLSAIIQNLEHRGRKVSCVIYTFFVSWAADVARQHAIPSVQYWIQPATVFAIYYHYFHGYESVVAAHSHDPSYPINLPGLSPVQVRDLPSFLTIKPDDPYAVVLSMIRDSFEGLDREETKTKVLVNTFGQLEADAILAVDKMDIIPVGPILPCKGGVSRGDLLKEDEKGYMEWLDSKPENSVVYVSLESLAVLKKQQKFLILKGLKDSGRPYLWVVRRDSGLEGVELGDWDGDGDGDNGMVVGWCSQVSVLSHPSVGCFVTHCGWNSTMESLASGVPTIGVPQWSDQPTCAALAEKDWGIGVRSEVNGDGILEGGELKRCLDLVLGDGERGVEIRRKVEFWKDKATEAISFGGSSDKNLRTFVDQITGYDPNVSSVGFWKDKAIHRQHCEESESASPS
A word on the Km: it is the substrate concentration at which the rate is half of its maximum. Consider B1, for which the Km in the data set “HPLC of glucoside formed” is 600 µM; in data set [1], 21.50 ± 2.3 µM; in data set [2], 15.6 ± 1.2 µM.

The record behind these values is PMC2736960, “Cloning and characterization of a glucosyltransferase from Crocus sativus stigmas involved in flavonoid glucosylation” (BMC Plant Biology, 2009).
